Source: patent publication US20070110756A1, “Method for modulating P53 activity via methylation” (priority 2005, published 2007)

B1: 5′-gat ccg cac ctg gac gat gac gga tta cct tcc tgt caG TAATCCGTCATCGTCCAGGTG Ctt ttt g-3′ (nucleic acid)
chain: GATCCGCACCTGGACGATGACGGATTACCTTCCTGTCAGTAATCCGTCATCGTCCAGGTGCTTTTTG
modifications: expressed or natural sequence
notes: stem-loop siRNA targeting SET9, expressed from lentiviral pLSL-GFP vector

Key:
[1] = system: methylated p53 bound to the p21 promoter in U2OS cells; experiment: ChIP assay of methylated p53 at the p21 promoter; assay type: cell-based; conditions: 0.5 μM of Adr, time course
Experimental: U2OS and USOS Set9 siRNA cells were treated with 0.5 μM of Adr and collected at the indicated time points for a CHIP assay performed using anti-p53-Lys372me antibody. The amounts of precipitated p21 promoter were determined by quantitative RT-PCR.
It was observed that p53 methylation likely precedes acetylation. Therefore, it was expected that p53 methylation must occur at very early times after DNA damage. […] At the indicated time periods, cells were harvested, and DNA-protein complexes were cross-linked and subjected to chromatin immunoprecipitation (ChIP) analysis, initially using anti-p53-Lys372me antibodies. To increase the specificity of ChIP, the anti-p53-Lys372me immunoprecipitates were eluted from the beads with 1% SDS, diluted with immunoprecipitation buffer and then subjected to a second round of immunoprecipitation using anti-p53 antibody.
ChIP assay on U2OS and U2OS cells expressing siRNA-Set9 was performed using established methods (Barlev, et al. (2001) supra). Briefly, cells were cross-linked with 1% formaldehyde, neutralized with 0.125 M glycine and harvested by scraping. The chromatin fraction was prepared by incubating the cells in lysis buffer (10 mM Tris pH 8.0, 200 mM NaCl, 10 mM EDTA, 0.5 mM EGTA, 1 mM PMSF). The insoluble fraction was sonicated and subjected to immunoprecipitation with anti-p53-Lys372me serum. […]

[2] = system: methylated Lys372-p53 in 293F cells; experiment: immunoprecipitation with anti-p53-Lys372me and p53 western blot in 293F cells; assay type: cell-based; conditions: Adr-treated vs untreated
Experimental: The in vivo methylation of p53 at lysine 372 under conditions in which the intracellular concentration of Set9 was unaltered was also determined. 293F cells were treated with adriamycine (Adr), an agent that induces DNA damage resulting in the activation of a p53-responsive pathway. Cell extracts prepared from untreated and Adr-treated cells were then compared for total amounts of p53 protein using monoclonal p53 antibody. […] Both extracts were also subjected to immunoprecipitation with anti-p53-Lys372me antibodies followed by western blot analysis with p53-specific antibody.

U2OS cells = experiment: Annexin V apoptotic staining after DNA damage; assay type: cell-based
Description: This was directly tested by measuring the p53-dependent apoptotic response induced by DNA damage. […] The treatment of Set9-overexpressing cells with Adr further increased the Annexin V staining. […] Furthermore, Set9-mediated regulation of cell cycle and apoptosis was p53-dependent, because in the absence of p53, transfected Set9 was unable to induce p21 gene expression in H1299 (FIG. 4) or apoptosis in Saos-2 cells in response to DNA damage.

[3] = biological target: T1, Set9 construct composed of residues 52-366 (UniProt Q8WTS6 52-366); experiment: cell-based or functional assay
T1 sequence (looked up): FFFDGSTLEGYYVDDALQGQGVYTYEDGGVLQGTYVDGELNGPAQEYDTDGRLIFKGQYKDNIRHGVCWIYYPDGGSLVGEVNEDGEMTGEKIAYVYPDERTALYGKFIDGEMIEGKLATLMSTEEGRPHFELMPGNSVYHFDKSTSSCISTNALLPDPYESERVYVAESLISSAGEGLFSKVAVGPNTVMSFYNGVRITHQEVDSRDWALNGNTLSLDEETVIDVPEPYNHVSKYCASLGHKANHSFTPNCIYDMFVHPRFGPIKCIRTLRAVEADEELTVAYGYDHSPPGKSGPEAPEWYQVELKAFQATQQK

p53 in U2OS cells = experiment: p53 Lys372 methylation and total p53 levels in U2OS cells; assay type: cell-based
[4] = system: p21 gene expression in U2OS cells; experiment: p21 gene expression by quantitative real-time PCR; assay type: cell-based, human; conditions: normalized to GAPDH
Experimental: U2OS cells were stably transfected with FLAG-Set9 wild-type, FLAG-Set9 mutant or siRNA against Set9. Non-transfected cells served as control. Cells were mock-treated, or treated with 0.3 μM of 5-fluoro-uracil (5-FU) or adriamycine (Adr) as indicated. p21 (FIG. 3A), BAX (FIG. 3B) and MDM2 (FIG. 3C) gene expression was analyzed by quantitative real-time PCR using primers specific for the coding region. Shown are the relative values normalized to GAPDH signal.
Total RNA was extracted using the TRI reagent (INVITROGEN) according to the manufacturer's instructions. First-strand complementary DNA was synthesized using READY-TO-GO You-Prime First-Strand Beads (Amersham Biosciences, Piscataway, N.J.).
Real-time PCR was performed with the DNA ENGINE OPTICON 2 System (MJ Research, Waltham, Mass.) according to the manufacturer's instructions. The primers for human p21 (Cip1/WAF1′) and GAPDH (GENBANK accession numbers NM_000389 and NP_002037, respectively) were designed using the Primer3 program. […] Fluorescence was measured at the end of the elongation phase at 79° C. Expression levels were calculated as a ratio between p21 and GAPDH signals. […]

| Molecule | amount of methylated p53 bound to the p21 promoter [1] | intracellular concentration of methylated Lys372-p53 protein [2] | levels of intracellular p53 ([2]; monoclonal p53 antibody) | number of cells positively stained for Annexin V (U2OS cells) | enzymatic activity, methyltransferase assays with 3H-labeled S-adenosyl-L-methionine (AdoMet) [3] [fold] | total levels of p53 (p53 in U2OS cells) | Lys372 methylation of p53 (p53 in U2OS cells; upon Adr treatment) | p21 expression upon DNA damage [4] |
| --- | --- | --- | --- | --- | --- | --- | --- | --- |
| COc1cccc2c1C(=O)c1c(O)c3c(c(O)c1C2=O)C[C@@](O)(C(=O)CO)C[C@@H]3O[C@H]1C[C@H](N)[C@H](O)[C@H](C)O1 [Adr, adriamycine] | increased as early as 1.5 hours after DNA damage | increased the intracellular concentration of methylated Lys372-p53 protein | did not increase the levels of intracellular p53 | increased the number of cells positively stained for Annexin V |  |  |  |  |
| LKSKKGQSTSRHKKLMFKTY [wild-type p53 20-mer] |  |  |  |  | 6 |  |  |  |
| B1 | did not exhibit a significant increase in methylated p53 at the p21 promoter |  |  |  |  | decreased the total levels of p53 | decreased Lys372 methylation of p53 | impaired p21 expression upon DNA damage |
